From patent US20150344570A1 (published 2015) come the findings set out here.

In test [1] the target is T1, FcγRIIa R (human, UniProt P12318 34-217).
T1 construct: extracellular domain; also called FcgRIIa R type; 2aR; not shown: His tag at the C terminus
T1 sequence (looked up): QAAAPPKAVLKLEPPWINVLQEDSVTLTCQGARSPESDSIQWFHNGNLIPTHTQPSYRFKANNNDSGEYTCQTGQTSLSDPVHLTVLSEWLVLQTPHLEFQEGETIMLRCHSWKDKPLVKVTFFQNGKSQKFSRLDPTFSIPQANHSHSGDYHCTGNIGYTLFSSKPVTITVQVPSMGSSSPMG
Description: SPR, relative to GpH7-A5/GpH7-B3/GpL16-k0. Background: SPR reads the build-up and loss of mass on a sensor chip optically.

Another test deals with T2, FcγRIIb (human, UniProt P31994 43-217).
T2 construct: extracellular domain; also called FcgRIIb; 2b; not shown: His tag at the C terminus
T2 sequence (looked up): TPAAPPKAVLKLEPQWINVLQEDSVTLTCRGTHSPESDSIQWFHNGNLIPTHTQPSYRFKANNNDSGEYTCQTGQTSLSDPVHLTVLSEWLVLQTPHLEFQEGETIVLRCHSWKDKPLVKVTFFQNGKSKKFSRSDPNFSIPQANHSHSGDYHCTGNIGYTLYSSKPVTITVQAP
Description: SPR, relative to GpH7-A5/GpH7-B3/GpL16-k0.

The target in test [2] is T1, FcγRIIa R. Put plainly: SPR; He/Con_2aR divided by He/Con_2b (FcγRIIa R over FcγRIIb).

B1: GpH7-A5/GpH7-B3 variant L328_07I/GpL16-k0 (antibody, human IgG1, kappa)
heavy 1: not shown
heavy 2: not shown
light: DIVMTQSPLSLPVTPGEPASISCQASESLVHSNRNTYLHWYLQKPGQSPQLLIYKVSNRFSGVPDRFSGSGSGTDFTLKISRVEAEDVGVYYCSQNTHVPPTFGQGTKVEIERTVAAPSVFIFPPSDEQLKSGTASVVCLLNNFYPREAKVQWKVDNALQSGNSQESVTEQDSKDSTYSLSSTLTLSKADYEKHKVYACEVTHQGLSSPVTKSFNRGEC
notes: Heterodimerized anti-glypican-3 IgG1; mutation in the GpH7-B3 chain only; also called He Ab
Regarding B1, the He/Con_2aR with FcγRIIa R [1] was determined as 124 control = 100. Further, the He/Con_2b with FcγRIIb was 160 control = 100. The molecule further had a He_2aR/2b with FcγRIIa R [2] of 0.78 ratio.

B2: GpH7-A5/GpH7-B3 variant L328_11K/GpL16-k0 (antibody, human IgG1, kappa)
heavy 1: not shown
heavy 2: not shown
light: DIVMTQSPLSLPVTPGEPASISCQASESLVHSNRNTYLHWYLQKPGQSPQLLIYKVSNRFSGVPDRFSGSGSGTDFTLKISRVEAEDVGVYYCSQNTHVPPTFGQGTKVEIERTVAAPSVFIFPPSDEQLKSGTASVVCLLNNFYPREAKVQWKVDNALQSGNSQESVTEQDSKDSTYSLSSTLTLSKADYEKHKVYACEVTHQGLSSPVTKSFNRGEC
notes: as for B1
With B2, in the test with FcγRIIa R [1], the He/Con_2aR was found to be 2.5 control = 100. Moreover, the He/Con_2b with FcγRIIb is 7.5 control = 100. Moreover, the He_2aR/2b with FcγRIIa R [2] is 0.33 ratio.

B3: GpH7-A5/GpH7-B3 variant N325_07I/GpL16-k0 (antibody, human IgG1, kappa)
heavy 1: not shown
heavy 2: not shown
light: DIVMTQSPLSLPVTPGEPASISCQASESLVHSNRNTYLHWYLQKPGQSPQLLIYKVSNRFSGVPDRFSGSGSGTDFTLKISRVEAEDVGVYYCSQNTHVPPTFGQGTKVEIERTVAAPSVFIFPPSDEQLKSGTASVVCLLNNFYPREAKVQWKVDNALQSGNSQESVTEQDSKDSTYSLSSTLTLSKADYEKHKVYACEVTHQGLSSPVTKSFNRGEC
notes: as for B1
In the case of B3, the He/Con_2aR in the test with FcγRIIa R [1] was determined as 133 control = 100. In the test with FcγRIIb, this molecule came in with a He/Con_2b of 171 control = 100. Also, the He_2aR/2b with FcγRIIa R [2] is 0.78 ratio.

B4: GpH7-A5/GpH7-B3 variant L328_12R/GpL16-k0 (antibody, human IgG1, kappa)
heavy 1: not shown
heavy 2: not shown
light: DIVMTQSPLSLPVTPGEPASISCQASESLVHSNRNTYLHWYLQKPGQSPQLLIYKVSNRFSGVPDRFSGSGSGTDFTLKISRVEAEDVGVYYCSQNTHVPPTFGQGTKVEIERTVAAPSVFIFPPSDEQLKSGTASVVCLLNNFYPREAKVQWKVDNALQSGNSQESVTEQDSKDSTYSLSSTLTLSKADYEKHKVYACEVTHQGLSSPVTKSFNRGEC
notes: as for B1
As for B4, the He/Con_2aR in the test with FcγRIIa R [1] stood at 5 control = 100. Further, the He/Con_2b with FcγRIIb stood at 9.2 control = 100. In the test with FcγRIIa R [2], this molecule registered a He_2aR/2b of 0.54 ratio.

B5: GpH7-A5/GpH7-B3 variant N325_06M/GpL16-k0 (antibody, human IgG1, kappa)
heavy 1: not shown
heavy 2: not shown
light: DIVMTQSPLSLPVTPGEPASISCQASESLVHSNRNTYLHWYLQKPGQSPQLLIYKVSNRFSGVPDRFSGSGSGTDFTLKISRVEAEDVGVYYCSQNTHVPPTFGQGTKVEIERTVAAPSVFIFPPSDEQLKSGTASVVCLLNNFYPREAKVQWKVDNALQSGNSQESVTEQDSKDSTYSLSSTLTLSKADYEKHKVYACEVTHQGLSSPVTKSFNRGEC
notes: as for B1
In the test with FcγRIIa R [1], B5 had a He/Con_2aR of 152 control = 100. In the test with FcγRIIb, this molecule yielded a He/Con_2b of 217 control = 100. In addition, the He_2aR/2b with FcγRIIa R [2] is 0.7 ratio.

B6: GpH7-A5/GpH7-B3 variant L328_09D/GpL16-k0 (antibody, human IgG1, kappa)
heavy 1: not shown
heavy 2: not shown
light: DIVMTQSPLSLPVTPGEPASISCQASESLVHSNRNTYLHWYLQKPGQSPQLLIYKVSNRFSGVPDRFSGSGSGTDFTLKISRVEAEDVGVYYCSQNTHVPPTFGQGTKVEIERTVAAPSVFIFPPSDEQLKSGTASVVCLLNNFYPREAKVQWKVDNALQSGNSQESVTEQDSKDSTYSLSSTLTLSKADYEKHKVYACEVTHQGLSSPVTKSFNRGEC
notes: as for B1
Molecule B6 displayed a He/Con_2aR with FcγRIIa R [1] of 119 control = 100. Further, the He/Con_2b with FcγRIIb was 199 control = 100. In the test with FcγRIIa R [2], this molecule had a He_2aR/2b of 0.6 ratio.

B7: GpH7-A5/GpH7-B3 variant L328_10E/GpL16-k0 (antibody, human IgG1, kappa)
heavy 1: not shown
heavy 2: not shown
light: DIVMTQSPLSLPVTPGEPASISCQASESLVHSNRNTYLHWYLQKPGQSPQLLIYKVSNRFSGVPDRFSGSGSGTDFTLKISRVEAEDVGVYYCSQNTHVPPTFGQGTKVEIERTVAAPSVFIFPPSDEQLKSGTASVVCLLNNFYPREAKVQWKVDNALQSGNSQESVTEQDSKDSTYSLSSTLTLSKADYEKHKVYACEVTHQGLSSPVTKSFNRGEC
notes: as for B1
Take B7: the He/Con_2aR with FcγRIIa R [1] worked out at 105 control = 100. In addition, the He/Con_2b with FcγRIIb is 172 control = 100. Besides, the He_2aR/2b with FcγRIIa R [2] turned out to be 0.61 ratio.
